From PMC5779224 (2017) come the findings set out here.

As a reminder, the Kd is the concentration at which binding is half-saturated.

What all share (assay): ITC
The target of experiment [1] is T1, AnkB 28–873 (MBD + full AI-c) (human, UniProt Q01484-2 28-873).
T1 chain: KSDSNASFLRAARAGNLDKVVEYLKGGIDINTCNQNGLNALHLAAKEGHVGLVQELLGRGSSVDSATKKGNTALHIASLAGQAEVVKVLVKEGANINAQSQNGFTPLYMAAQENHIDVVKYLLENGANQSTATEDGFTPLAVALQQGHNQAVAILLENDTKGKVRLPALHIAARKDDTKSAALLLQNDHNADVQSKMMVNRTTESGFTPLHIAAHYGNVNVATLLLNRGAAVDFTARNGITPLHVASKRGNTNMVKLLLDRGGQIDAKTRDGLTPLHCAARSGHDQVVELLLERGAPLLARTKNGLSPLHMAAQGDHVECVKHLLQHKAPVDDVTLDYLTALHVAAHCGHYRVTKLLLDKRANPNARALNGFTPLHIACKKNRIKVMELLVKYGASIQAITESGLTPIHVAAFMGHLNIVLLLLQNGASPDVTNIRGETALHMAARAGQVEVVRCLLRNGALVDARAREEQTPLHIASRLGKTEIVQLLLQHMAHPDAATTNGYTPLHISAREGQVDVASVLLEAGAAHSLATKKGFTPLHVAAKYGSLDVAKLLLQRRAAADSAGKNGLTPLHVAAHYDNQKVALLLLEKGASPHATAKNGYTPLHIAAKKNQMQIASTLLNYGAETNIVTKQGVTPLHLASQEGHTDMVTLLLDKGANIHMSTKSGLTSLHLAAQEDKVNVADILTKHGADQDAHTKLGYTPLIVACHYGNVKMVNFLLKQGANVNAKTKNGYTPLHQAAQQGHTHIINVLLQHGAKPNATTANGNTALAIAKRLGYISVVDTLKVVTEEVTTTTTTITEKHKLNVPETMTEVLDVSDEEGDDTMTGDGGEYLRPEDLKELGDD

The target in experiment [2] is T2, AnkB R1-14 (Homo sapiens).
T2 chain: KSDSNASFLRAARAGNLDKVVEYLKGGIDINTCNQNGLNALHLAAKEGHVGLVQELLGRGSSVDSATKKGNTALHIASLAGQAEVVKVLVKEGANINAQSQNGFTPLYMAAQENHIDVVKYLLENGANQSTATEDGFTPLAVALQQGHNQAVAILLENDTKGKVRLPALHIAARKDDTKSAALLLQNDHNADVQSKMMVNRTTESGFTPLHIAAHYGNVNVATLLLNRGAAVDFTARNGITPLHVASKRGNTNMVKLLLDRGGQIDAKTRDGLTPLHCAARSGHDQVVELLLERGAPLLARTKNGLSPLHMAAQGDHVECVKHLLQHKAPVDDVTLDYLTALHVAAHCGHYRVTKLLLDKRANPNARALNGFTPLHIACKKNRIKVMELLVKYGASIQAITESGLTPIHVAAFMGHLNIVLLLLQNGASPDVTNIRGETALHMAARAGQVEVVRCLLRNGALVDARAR

Experiment [3] has as its target T3, AnkB R6-24 (Homo sapiens).
T3 chain: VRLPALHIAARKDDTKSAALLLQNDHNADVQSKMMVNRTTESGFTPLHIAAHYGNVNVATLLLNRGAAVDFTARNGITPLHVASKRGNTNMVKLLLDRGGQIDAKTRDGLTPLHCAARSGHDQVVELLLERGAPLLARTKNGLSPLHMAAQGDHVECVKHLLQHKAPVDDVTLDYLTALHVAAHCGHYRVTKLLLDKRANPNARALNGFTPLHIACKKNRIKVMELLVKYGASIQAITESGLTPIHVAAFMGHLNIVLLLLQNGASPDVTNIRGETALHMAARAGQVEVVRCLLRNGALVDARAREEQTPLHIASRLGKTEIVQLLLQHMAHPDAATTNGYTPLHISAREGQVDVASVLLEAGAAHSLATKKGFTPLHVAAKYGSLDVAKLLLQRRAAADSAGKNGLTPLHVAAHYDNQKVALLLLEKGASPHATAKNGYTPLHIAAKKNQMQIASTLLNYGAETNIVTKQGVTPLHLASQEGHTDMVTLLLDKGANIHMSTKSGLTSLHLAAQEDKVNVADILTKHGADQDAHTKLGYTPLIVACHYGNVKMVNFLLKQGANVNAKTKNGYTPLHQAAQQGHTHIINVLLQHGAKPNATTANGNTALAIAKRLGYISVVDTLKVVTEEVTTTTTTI

B1: AnkB entire linker (aa 828–965) (domain or fragment)
chain: TEKHKLNVPETMTEVLDVSDEEGDDTMTGDGGEYLRPEDLKELGDDSLPSSQFLDGMNYLRYSLEGGRSDSLRSFSSDRSHTLSHASYLRDSAVMDDSVVIPSHQVSTLAKEAERNSYRLSWGTENLDNVALSSSPIH
Turning to B1, the Kd in experiment [1] stood at 2.2 µM; in experiment [2], 4.1 µM; in experiment [3] it was 4.7 µM.
